Patent EP2265632B1, “CD4-RELATED POLYPEPTIDES AND METHODS OF USE” (priority 2008, dated 2009)

Tests used:
[1] = target: recombinant HIV-1BaL gp120 (HIV-1 BaL); assay: ELISA on immobilized gp120BaL in 100 mM β-mercaptoethanol
[2] = target: recombinant HIV-1BaL gp120 (HIV-1 BaL); assay: ELISA on immobilized gp120BaL in 25 mM DTT

## MAb 2G12 (antibody)
[1]
  percent of the binding seen under native conditions: 50%
[2]
  percent of the binding seen under native conditions: 50%

## MAb IgG1 b12 (antibody)
[1]
  percent of the binding seen under native conditions: 50%
[2]
  percent of the binding seen under native conditions: 50%
